In data set [1] the target is T1, CntA (carnitine monooxygenase oxygenase component) (Acinetobacter baumannii, UniProt D0C9N6).
T1 construct: with CntB (homologous system) or YeaX (chimeric system)
Put plainly: L-carnitine depletion assay with purified proteins. Type of data set: biochemical.

Data set [2] concerns the target T2, YeaW (carnitine monooxygenase oxygenase component) (Escherichia coli, UniProt P0ABR7).
T2 construct: N-terminal strep tag II fusion; with YeaX
Put plainly: L-carnitine depletion and O2 depletion assays with purified proteins. Type of data set: biochemical.

Data set [3] deals with T2, YeaW (carnitine monooxygenase oxygenase component). Briefly: L-carnitine depletion assay with purified YeaX/YeaW; slow conversion to TMA also shown by GC-MS. It is filed as biochemical.
Data set [4] concerns the molecule itself. Put plainly: SEC; analytical gel filtration, Superdex 200 increase 5/150 GL, 10 mM Hepes-NaOH pH 7.5, 150 mM NaCl, 0.45 ml min^-1, 20 µl samples (~300 µM), calibrated with protein standards.
Data set [5] addresses T3, YeaW, Rieske-type oxygenase component of carnitine monooxygenase from E. coli (E. coli) (UniProt P0ABR7).
T3 sequence: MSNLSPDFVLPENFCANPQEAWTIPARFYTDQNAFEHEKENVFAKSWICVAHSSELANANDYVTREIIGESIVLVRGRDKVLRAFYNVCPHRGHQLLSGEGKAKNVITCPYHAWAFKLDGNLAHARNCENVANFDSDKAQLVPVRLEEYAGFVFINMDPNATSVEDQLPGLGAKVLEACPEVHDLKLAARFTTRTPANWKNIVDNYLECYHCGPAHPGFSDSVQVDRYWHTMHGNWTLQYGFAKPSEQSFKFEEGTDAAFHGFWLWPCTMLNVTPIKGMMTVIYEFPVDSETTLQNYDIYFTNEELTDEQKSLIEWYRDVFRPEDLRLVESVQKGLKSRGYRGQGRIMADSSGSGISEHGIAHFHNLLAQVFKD

Data set [6] addresses T3, YeaW, Rieske-type oxygenase component of carnitine monooxygenase from E. coli (E. coli). This is another data set of the same source.
Data set [7] shares this target. This is another data set of the same source.
The target is the same in data set [8]. The source holds these as a separate data set.

Residue numbers refer to the chain shown, from its start. Numbers in names are those of the source. Where two headings read alike, the source gives them in different places.

T2 sequence (P76254 whole entry, one chain of several, the tested form may be a part): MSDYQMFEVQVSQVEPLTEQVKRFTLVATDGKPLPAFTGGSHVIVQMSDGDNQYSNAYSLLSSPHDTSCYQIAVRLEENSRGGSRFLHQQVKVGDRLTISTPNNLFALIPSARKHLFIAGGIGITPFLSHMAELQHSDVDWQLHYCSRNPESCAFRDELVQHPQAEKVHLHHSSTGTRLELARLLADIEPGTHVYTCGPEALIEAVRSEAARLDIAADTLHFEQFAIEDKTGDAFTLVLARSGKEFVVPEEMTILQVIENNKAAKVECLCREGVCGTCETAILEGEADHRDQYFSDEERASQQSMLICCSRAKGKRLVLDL
T1 sequence (D0C9N6 whole entry): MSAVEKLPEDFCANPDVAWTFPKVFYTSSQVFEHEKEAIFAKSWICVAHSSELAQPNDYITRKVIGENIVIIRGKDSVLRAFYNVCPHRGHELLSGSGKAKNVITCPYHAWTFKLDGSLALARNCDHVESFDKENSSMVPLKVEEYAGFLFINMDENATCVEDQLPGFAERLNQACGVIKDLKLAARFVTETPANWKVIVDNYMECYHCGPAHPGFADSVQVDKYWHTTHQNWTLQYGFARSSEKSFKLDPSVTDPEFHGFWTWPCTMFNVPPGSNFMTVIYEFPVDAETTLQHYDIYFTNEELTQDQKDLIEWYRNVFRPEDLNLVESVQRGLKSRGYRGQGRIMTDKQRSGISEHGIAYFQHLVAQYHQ

With `C[N+](C)(C)C[C@H](O)CC(=O)[O-]` [L-carnitine], in data set [1], the “L-carnitine depletion assay with purified proteins” value amounted to 353 ± 68 nmol/min/mg. Further, in data set [2], the “L-carnitine depletion and O2 depletion assays with purified proteins” value was 1288 ± 48 nmol/min/mg. As to `C[N+](C)(C)NCCC(=O)[O-]` [meldonium], in data set [3], half-maximal inhibition (IC50) required 612 ± 68 µM.

B1: YeaW, Rieske-type oxygenase component of carnitine monooxygenase from E. coli (enzyme, UniProt P0ABR7 1-374, looked up)
chain: T3 sequence
notes: primers run from the start to the stop codon; No cleavage of the tag is described; calculated molecular mass 45,463 Da; Carries a Rieske-type [2Fe-2S] cluster and a mononuclear [Fe] center; also called oxygenase YeaW; catalytic unit YeaW
In the case of B1, in data set [4], the “stoichiometry N” value was 3.

B2: YeaX variant K313Q (enzyme)
chain: MSDYQMFEVQVSQVEPLTEQVKRFTLVATDGKPLPAFTGGSHVIVQMSDGDNQYSNAYSLLSSPHDTSCYQIAVRLEENSRGGSRFLHQQVKVGDRLTISTPNNLFALIPSARKHLFIAGGIGITPFLSHMAELQHSDVDWQLHYCSRNPESCAFRDELVQHPQAEKVHLHHSSTGTRLELARLLADIEPGTHVYTCGPEALIEAVRSEAARLDIAADTLHFEQFAIEDKTGDAFTLVLARSGKEFVVPEEMTILQVIENNKAAKVECLCREGVCGTCETAILEGEADHRDQYFSDEERASQQSMLICCSRAQGKRLVLDL
Regarding B2, in data set [5], the residual L-carnitine depletion activity (wild type = 100%) is 30% and the residual O2 depletion activity (wild type = 100%) worked out at 30%.

B3: YeaX variant K313E (enzyme)
chain: B2 chain with Q313E
For the molecule B3, in data set [5], the residual L-carnitine depletion activity (wild type = 100%) is 7% and the residual O2 depletion activity (wild type = 100%) amounted to 11%.

B4: YeaX variant D320K (enzyme)
chain: B2 chain with Q313K, D320K
In data set [6], B4 displayed a residual L-carnitine depletion activity (wild type = 100%) of 3% and a residual O2 depletion activity (wild type = 100%) of 7%.

B5: YeaX variant D320N (enzyme)
chain: B2 chain with Q313K, D320N
Turning to B5, in data set [6], the L-carnitine depletion activity (wild type = 100%) came out at 9% and the O2 depletion activity (wild type = 100%) came to 11%.

B6: YeaX variant R271K (enzyme)
chain: B2 chain with R271K, Q313K
As for B6, in data set [7], the residual L-carnitine depletion activity (wild type = 100%) amounted to 80% and the residual O2 depletion activity (wild type = 100%) was determined as 70%.

B7: YeaX variant R271Q (enzyme)
chain: B2 chain with R271Q, Q313K
In the case of B7, in data set [7], the residual L-carnitine depletion activity (wild type = 100%) is 4% and the residual O2 depletion activity (wild type = 100%) came to 11%.

B8: CntB, reductase component of carnitine monooxygenase from Acinetobacter baumannii (enzyme)
chain: MASHYEMFPAVVTRVEQLTPLIKRFTFKRQDGQNFPRFSGGSHIIVKMNEQLSNAYSLMSCTQDLSTYQVCVRKDVEGKGGSVFMHDQCNEGCEIQISEPKNLFPLAETGNKHILIAGGIGITPFLPQMDELAARGAEYELHYAYRSPEHAALLDELTQKHAGHVFSYVDSEGSMLNLDELISSQPKGTHVYVCGPKPMIDAVIDCCNKHRYRDEYIHWEQFASTVPEDGEAFTVVLAKSNQEIEVQSNQTILQAIETLNIDVECLCREGVCGTCETAILEGEAEHFDQYLSDAEKASQKSMMICVSRAKGKKLVLDL
In data set [8], B8 had a Relative L-carnitine depletion activity of the chimeric enzyme (YeaX/YeaW = 100%) of 20% and a Relative O2 depletion activity of the chimeric enzyme (YeaX/YeaW = 100%) of 4%.

For the origin of these results see PMC9508527, “Two-component carnitine monooxygenase from Escherichia coli: functional characterization, inhibition and mutagenesis of the molecular interface” (Bioscience Reports, 2022).
